How the values were obtained:
Assay in all cases: cell-based or functional assay
[1] = biological target: HIV-1 NL4-3 (CXCR4-tropic) env (gp120 and gp41) (HIV-1 strain NL4-3)
[2] = biological target: HIV-1 HXB2 env (X4) (gp120 and gp41) (HIV-1 strain HXB2) (UniProt P04578)
[3] = biological target: HIV-1 92HT599 (CXCR4-tropic) env (gp120 and gp41) (HIV-1 strain 92HT599)
[4] = biological target: HIV-1 ADA (R5) env (gp120 and gp41) (HIV-1 strain ADA)
[5] = biological target: HIV-1 IIIB (X4) env (gp120 and gp41) (HIV-1 strain IIIB)
[6] = biological target: HIV-1 JRFL (R5) env (gp120 and gp41) (HIV-1 strain JRFL)
[7] = biological target: HIV-1 91US005 (R5) env (gp120 and gp41) (HIV-1 strain 91US005)
[8] = biological target: HIV-1 Ba-L (R5) env (gp120 and gp41) (HIV-1 strain Ba-L)

Griffithsin, sequence (P84801 whole entry X31A): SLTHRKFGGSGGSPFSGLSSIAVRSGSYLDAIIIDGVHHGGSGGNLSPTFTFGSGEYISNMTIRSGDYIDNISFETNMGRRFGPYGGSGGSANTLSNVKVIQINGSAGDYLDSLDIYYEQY

Griffithsin (from UniProt P84801 1-121) showed an Inhibition of HIV-1 Replication in PBMCs, NL4-3 (CXCR4-tropic), IC50 [1] of 170 pM, an Inhibition of HIV-1 Replication in PBMCs, NL4-3 (CXCR4-tropic), IC90 [1] of 725 pM and an X4 fusion assay IC50 [2] of 468 pM. For the same substance, the Inhibition of HIV-1 Replication in PBMCs, 92HT599 (CXCR4-tropic), IC50 [3] was 740 pM, the Inhibition of HIV-1 Replication in PBMCs, 92HT599 (CXCR4-tropic), IC90 [3] was 1860 pM and the Inhibition of HIV single round pseudovirus in TZM-bl cells, ADA (R5), IC50 [4] was 8 pM. It also gave an Inhibition of HIV single round pseudovirus in TZM-bl cells, ADA (R5), IC90 [4] of 164 pM, an Inhibition of HIV virus, ADA (R5) in MAGI cells, IC50 [4] of 30 pM and an Inhibition of HIV virus, ADA (R5) in MAGI cells, IC90 [4] of 450 pM. It also gave an R5 fusion assay IC50 [4] of 1300 pM, an R5 fusion with competition IC50 [4] of 1730 pM and an R5 fusion with wash-out on ADA cells IC50 [4] of 4280 pM. The R5 fusion with wash-out on P5L cells IC50 [4] was 7340 pM, the Inhibition of HIV virus, IIIB (X4) in MAGI cells, IC50 [5] was 145 pM and the Inhibition of HIV virus, IIIB (X4) in MAGI cells, IC90 [5] was 890 pM. It also gave an Inhibition of HIV single round pseudovirus in TZM-bl cells, JRFL (R5), IC50 [6] of 35 pM, an Inhibition of HIV single round pseudovirus in TZM-bl cells, JRFL (R5), IC90 [6] of 1250 pM and an Inhibition of HIV virus, 91US005 (R5) in PBMC, IC50 [7] of 160 pM. It also gave an Inhibition of HIV virus, 91US005 (R5) in PBMC, IC90 [7] of 510 pM, an Inhibition of HIV-1 Replication in PBMCs, 91US005 (CCR5-tropic), IC50 [7] of 280 pM and an Inhibition of HIV-1 Replication in PBMCs, 91US005 (CCR5-tropic), IC90 [7] of 760 pM. For the same substance, the Inhibition of HIV virus, Ba-L (R5) in MAGI cells, IC50 [8] was 40 pM, the Inhibition of HIV virus, Ba-L (R5) in MAGI cells, IC90 [8] was 515 pM and the Inhibition of HIV virus, Ba-L (R5) in PBMC, IC50 [8] was 280 pM. For the same substance, the Inhibition of HIV virus, Ba-L (R5) in PBMC, IC90 [8] was 760 pM.

Source: US20110263485A1, “Bifunctional Griffithsin Analogs” (priority 2009, published 2011)
